B1: Pyocin L1: lectin-like pyocin, SEQ ID NO: 24; receptor believed to be common polysaccharide antigen of LPS (protein, listed as Pseudomonas aeruginosa)
chain: MASSLAPRQVIRDGQFITSPNGKYKLVMQADGNLVLYEDGTKPIWNTTPVGPGAKAVMEFNLNLYNKAGQVAWSSNVYTAYLFEEFKDEAYLNLQDDGDFGIFSDEAKWGSIVLSRPEVGVKNKIIPTGTVMVPGTEYINGNYRLAFQGDGNLVIYQINPQVVIWATYTMGADRAVVQEDGNFVIYKGTTALWHTHTATGMPAYLKFTNTGKLFLSQPTLLWTLKRGSLSKPPKVIPGQHGPLDTTPIWSWPHDYP
B2: Pyocin SD2: S-type pyocin, SEQ ID NO: 7; targeting domain binds LPS common polysaccharide antigen (protein, listed as Pseudomonas aeruginosa)
chain: MAVNDYEPGSMVITHVQGGGRDIIQYIPARSSYGTPPFVPPGPSPYVGTGMQEYRKLRSTLDKSHSELKKNLKNETLKEVDELKSEAGLPGKAVSANDIRDEKSIVDALMDAKAKSLKAIEDRPANLYTASDFPQKSESMYQSQLLASRKFYGEFLDRHMSELAKAYSADIYKAQIAILKQTSQELENKARSLEAEAQRAAAEVEADYKARKANVEKKVQSELDQAGNALPQLTNPTPEQWLERATQLVTQAIANKKKLQTANNALIAKAPNALEKQKATYNADLLVDEIASLQARLDKLNAETARRKEIARQAAIRAANTYAMPANGSVVATAAGRGLIQVAQGAASLAQAISDAIAVLGRVLASAPSVMAVGFASLTYSSRTAEQWQDQTPDSVRYALGMDANKLGLTSSVNLSAVAKAGGTVDLPMRLTNEARGNTTTLSVVSTDGVSVPKAAPVRMAAYNATTGLYEVTVPSTTAEAPPLILTWTPASPPGNQNPSSTTPVIPKPVPVYEGAALTPLKTGPESYPGMLLDLNDLIVIFPADSGVKPVYVMLSSPLDSGIFTRRQLQKKFDSHKYDFGLGEKSANNGTLAEFRDKILEHLADPATVEKGTYHSEVNSKVHYNARTNIVVIIGEDGMFVSGWRIEPGTDQYNFYMKNEVL

How the values were obtained:
P. aeruginosa P8 = assay: Mouse model of acute lung infection, P. aeruginosa P8; assay type: in vivo, Pseudomonas aeruginosa; conditions: for Lowest active concentration tested: lowest concentration tested with which the treated mice survived to 24 h; for Corresponding molarity: molarity of lowest active concentration tested
Method: Study design. […] For all experiments 6 week-old, female, murine pathogen free C57/BL6 mice weighing 15-21 g were used (Charles Rivers Laboratories, UK). All mice received food and water ad libitum and were housed in groups during the experiments. Power calculations were used to predetermine sample size (n=6, for all treatment experiments). Mice were culled when required as determined by a scoring system or culled at the pre-determined 24 h time point. All mice, including outliers were included in the statistical analysis. Experiments were either carried out once only or repeated once (defined for each experiment).
(§1) Model of acute lung infection. Female C57/BL6 mice were inoculated intranasally with 25 μl of bacterial culture containing approximately 10^7 CFU of the selected P. aeruginosa strain^36. Antibiotic treatments were administered at either 6 h pre-infection or 1 h post-infection and were administered only once. Pyocins or tobramycin dissolved in PBS were administered via intranasal administration as described above. Two different end-points were used in these experiments. In order to determine a reduction in the bacterial load of the lungs compared to the untreated controls, all mice in the experiment were culled by carbon dioxide asphyxiation at the same time; 4-6 h post infection. To determine if mice could survive infection after pyocin or tobramycin treatment, mice were monitored closely, culled by carbon dioxide asphyxiation when required as determined by a scoring system or culled at the pre-determined 24 h time point. Uninfected mice, treated with pyocins, were used as controls in the first series of experiments in order to ensure no adverse effects from pyocin treatment. These controls were stopped in later experiments in order to reduce the number of animals used, once it was clear that the pyocins were not harmful. For CFU determination, lungs were removed aseptically and kept on ice in 750 μl of PBS until homogenised. Serial 10-fold dilutions of the homogenised lung were plated on Pseudomonas selective agar (20 g peptone, 1.5 g K2HPO4, 1.5 g MgSO4·7H2O, 10 ml glycerol, 15 g agar, 0.025 g Irgasan per litre) and incubated at 37° C. for 24 h and then room temperature for 24 h before the colonies were counted.

[1] = system: P. aeruginosa P5 (mucoid); assay: Mouse model of acute lung infection, P. aeruginosa P5; assay type: in vivo, Pseudomonas aeruginosa
Method: as §1
(§2) Since strains of P. aeruginosa are phenotypically diverse, we tested the efficacy of the pyocins against three additional isolates: P. aeruginosa P17 and P. aeruginosa P5 (mucoid), both from cystic fibrosis patients and P. aeruginosa E2, an environmental isolate. Pyocin S2 was not active against P. aeruginosa P5 or P. aeruginosa E2 in vitro therefore was not used to treat these strains in vivo and similarly pyocin L1 was not used against P. aeruginosa P17. […] Lung homogenates from P. aeruginosa E2-infected AP41-treated mice contained high levels of viable bacteria, reduced only 10-fold relative to control mice (Table 1). […] Thus, pyocins show strong efficacy against diverse strains of P. aeruginosa with pyocin S5 treatment displaying the largest effect on reducing bacterial load.

P. aeruginosa E2 = assay: Mouse model of acute lung infection, P. aeruginosa E2; assay type: in vivo, Pseudomonas aeruginosa
Method: as §1, §2

P8AP41T [2] = assay: Mouse model of acute lung infection, AP41 tolerant strain P8AP41T; assay type: in vivo, Pseudomonas aeruginosa; conditions: 3 mg ml^−1 1 h post-infection
Method: as §1
(§3) In order to determine if pyocin tolerance or resistance was acquired upon pyocin treatment in vivo, viable bacteria recovered from mice that survived infection to the 24 h end-point, in all experiments discussed in this work, were tested for pyocin susceptibility. From these experiments no pyocin resistant colonies were isolated. […] Importantly, sensitivity to pyocins S5 and L1 were unaffected in vitro in this pyocin AP41-tolerant strain (FIG. 3a) and this was also shown to be the case in vivo when mice were infected with P8AP41T.

P8AP41T [3] = assay: Pyocin sensitivity in vitro (spot tests) of strain P8AP41T; assay type: cell-based, Pseudomonas aeruginosa; conditions: spot tests, FIG. 3a
Method: Pyocin sensitivity assays: overlay spot plate method. Soft agar overlay spot plates were performed using the method of ^35. 150 μl of test strain culture at OD600 nm=0.6 was added to 6 ml of 0.8% soft agar and poured over an LB agar plate. 5 μl of bacteriocin, lung homogenate or blood at varying concentrations was spotted onto the plates and incubated for 24 h at 37° C.
as §3

P. aeruginosa PA01 = assay: Mouse model of acute lung infection, P. aeruginosa PA01; assay type: in vivo, Pseudomonas aeruginosa
Method: as §1, with “Uninfected mice, treated with pyocins, were used as controls in the first series of experiments in order to ensure no adverse effects from pyocin treatment. These controls were stopped in later experiments in order to reduce the number of animals used, once it was clear that the pyocins were not harmful. For CFU determination, lungs were removed aseptically and kept on ice in 750 μl of PBS until homogenised.” left out
A similar experiment was performed using pyocin SD2. […] The bacterial load of the lungs was determined and control mice had approx 2×10^5 CFU/lung, 6 h after infection.

Molecule | survival (P. aeruginosa P8; 300 μg ml^−1, 1 h post-infection (FIG. 2b)) | bacterial counts compared to the PBS controls (P. aeruginosa P8; 300 μg ml^−1, 24 h post-infection (FIG. 2b)) | Lowest active concentration tested (P. aeruginosa P8) [µg/mL] | Corresponding molarity (P. aeruginosa P8) [µM] | mice culled at 6 h post-infection due to the severity of symptoms (P. aeruginosa P8; 30 μg ml^−1, six mice) | survival (P. aeruginosa P8; 300 μg ml^−1, endpoint 24 h post-infection) | reduction of bacterial load in lung (P. aeruginosa P8; 3 mg ml^−1 intranasal 1 h post-infection, culled 4.5 h post-infection (FIG. 1c)) | reduction of bacterial numbers in lung (P. aeruginosa P8; C57/BL6 mice, 3 mg ml^−1 intranasal 6 h pre-infection, culled 4 h post-infection (FIG. 1a)) [fold] | survival / protection ([1]; pyocin 3 mg ml^−1, endpoint 24 h, infected controls culled at 4.5 h) | bacterial count in lung, P5 ([1]; pyocin 3 mg ml^−1, treated mice survived to 24 h, no treatment 1.7 × 10^5 CFU/lung) [CFU/lung] | survival / protection (P. aeruginosa E2; pyocin 3 mg ml^−1, endpoint 24 h, infected controls culled at 5.5 h) | bacterial count in lung, E2 (P. aeruginosa E2; pyocin 3 mg ml^−1, treated mice survived to 24 h, no treatment 1.5 × 10^5 CFU/lung) | bacterial numbers in lung homogenates (P8AP41T [2]; 24 h (FIG. 3b)) | survival (P8AP41T [2]; endpoint 24 h, PBS controls culled 6 h post-infection (FIG. 3b)) | sensitivity of the pyocin AP41-tolerant strain in vitro (P8AP41T [3]) | bacterial load of the lungs (P. aeruginosa PA01; 3 mg ml^−1 1 h post-infection, 24 h post-infection, control approx 2×10^5 CFU/lung at 6 h) | survival (P. aeruginosa PA01; C57/BL6 mice, 3 mg ml^−1 intranasal 1 h post-infection, endpoint 24 h (FIG. 7))
NC[C@H]1O[C@H](O[C@H]2[C@H](O)[C@@H](O[C@H]3O[C@H](CO)[C@@H](O)[C@H](N)[C@H]3O)[C@H](N)C[C@@H]2N)[C@H](N)C[C@@H]1O [Tobramycin, tobramycin, reference compound] | survived to 24 h | significantly reduced the bacterial counts | 300 | 641 | – | – | – | – | – | – | – | – | – | – | – | – | –
B1 | – | – | 30 | 1.06 | three of the six | survived until the endpoint of the experiment at 24 h post-infection | approximately 20 fold | ~1500 | survived until the 24 h endpoint | 40 | survived until the 24 h endpoint | No colonies | significantly reduced bacterial numbers | survived until the endpoint of the experiment at 24 h | unaffected | – | –
B2 | – | – | – | – | – | – | – | – | – | – | – | – | – | – | – | no colonies or 10 | survived to the endpoint of the experiment at 24 h
